Source: US20140294815A1 (NVIP, published 2014)

Legend:
[1] = biological target: T1, canine tumour necrosis factor alpha (canine, UniProt P51742 77-233); test: ELISA, canine TNFa coated, antibody 5 ug/ml to 0.05 ug/ml
T1 construct: Coated at 5 ug/ml in the ELISA; used at 1 ng/mL in the reporter assay; also called canine TNF; canine TNFa
Description: The resultant supernatants were purified on Protein A, analysed by SDS-PAGE (FIG. 10A) and tested for binding to canine TNFa (coated at 5 ug/ml; R&D systems) at the indicated concentrations of antibody (ug/ml) by ELISA and detected using anti-canine polyclonal antibody-horseradish peroxidase conjugate (Sigma A9042) (FIG. 10B). The negative control was the detection polyclonal on coated antigen alone.

human TNF = biological target: T2, human TNF (human, UniProt P01375 77-233); test: binding assay of FIG. 12(a) Panel B
T2 construct: also called huTNF
T2 sequence (P01375 77-233 limits assumed): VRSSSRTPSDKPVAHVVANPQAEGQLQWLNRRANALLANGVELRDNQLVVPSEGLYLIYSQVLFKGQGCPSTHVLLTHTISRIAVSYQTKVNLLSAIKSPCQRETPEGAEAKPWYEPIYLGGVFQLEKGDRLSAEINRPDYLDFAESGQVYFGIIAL

[2] = biological target: T1, canine tumour necrosis factor alpha; test: binding assay of FIG. 12(a) Panel C, compared with the D2E7 based MAbs

T1 sequence (P51742 77-233 limits assumed): as the sequence (P01375 77-233 limits assumed) above, with R2K, Q21E, N30S, R44T, V49I, E53D, I83F, A109T, R138L, D140N counted along it

Row | binding result (human TNF) | Binder | binding result [1] | binding result [2]
1 | binds | caninised anti-TNF monoclonal antibody (SEQ ID NO:3 light chain plus SEQ ID NO:5 heavy chain), based on D2E7 (antibody, V domains shown, canine IgG-B heavy chain, kappa light chain; also called ca-HCB+ca-kLC; caninised (Ca) D2E7 based MAb) VH: not shown VL: DIVMTQSPASLSLSQEEKVTITCRASQGIRNYLAWYQQKPGQAPKLLIYAASTLQSGVPSRFSGSGSGTDFTLTISSLEPEDVAVYYCQRYNRAPYTFGQGTKVEIKR | binds | –
2 | binds | caninised anti-huTNF MAb 148 (SEQ ID NO:18 plus SEQ ID NO:19) (antibody, V domains shown, Expressed in CHO cells and purified by Protein A chromatography; also called ca148-HCB) VH: EVQLVESGGGVVQPGGSLRLSCAASGFIFSSYAMRWVRQAPGKGLEWVAFMSYDGSNKKYADSVKGRFTISRDNSKNTLYLQMNSLRAEDTAVYYCARDRGIAAGGNYYYYGMDVWGQGTSVTVSS VL: EIVMTQSPASLSLSPGEKATISCRASQSVYSYLAWYQQKPGQAPRLLIYDASNRATGVPSRFSGSGSGTDFTLTISSLEPEDVAVYYCQQPSNWPPFTFGPGTKVDIKR | – | no binding
